{"source": "paper PMC5832301", "molecular_target": "UDP-glucose pyrophosphorylase from sugarcane (ScUGPase-1) (sugarcane (Saccharum spp. hybrids))", "test": "SEC-MALS; sample of the larger oligomeric form peak; Superdex 200 increase 5/150, room temperature, 2.0 mg/mL, 20 mM Tris/HCl pH 8.0, 20 mM NaCl", "data": [{"substance": "UDP-glucose pyrophosphorylase from sugarcane (ScUGPase-1) (from UniProt A0A075E2Q1 1-476) (enzyme)", "values": [{"measurement": "stoichiometry N", "value": 8}]}]}
